Here are results for 3 molecules from US9556424B2, “1-deoxy-D-xylulose 5-phosphate synthase alleles responsible for enhanced terpene biosynthesis” (GENOPLANTE-VALOR, priority 2010, dated 2017).

Residue numbers refer to the chain shown, from its start.

For one experiment, the system named is grape berries. Description: Terpenol content in grape berry skins as a function of DXS alleles (MO and GW progeny). Format: in vivo, Vitis vinifera. Particulars: by DXS genotype in MO and GW progeny, pool of 5 major terpenols. The method, then:
Isolation of Free and Bound Monoterpenols by Solid Phase Extraction (SPE)
For each sampling point, three replicates of terpenol analysis were performed. For each replicate, at least 25 berries were used. Seeds were removed and skins separated from mesocarps. After weighing, skins were ground under liquid nitrogen and then suspended in 40 mL of water after addition of 40 mg of sodium sulphite. The supernatant obtained after a 15-min centrifugation (11400 g at 4° C.) was passed through a glass fibre pre-filter and a glass filter. Twenty microliters of a 1 g/L 4-nonanol solution was added as external standard to allow the quantification of the main terpenols. Extraction of terpenols was adapted from Mateo et al. (1997), ethanol being used instead of methanol. The filtrate was passed through a 1 g phase C18 silica-bonded non-polar SPE column (BOND ELUT JR.), previously washed with 5 mL of methanol and 15 mL of ultra-pure water, at a rate of approximately one drop/s. The sample was then divided in two equal subsamples, one for the analysis of free and glycosidically bound monoterpenols and one for the analysis of free terpenols. Total fractions of free and bound monoterpenols were eluted with 4 mL of absolute ethanol. […]

For another experiment, the system named is tobacco leaves. In words: Agrobacterium-mediated transient co-expression of GES and DXS alleles in tobacco leaves, geraniol by GC-MS. The experiment is classed as in vivo, Nicotiana benthamiana. Conditions: 96 h after infiltration; for increase in geraniol accumulation in tobacco leaves: co-expression with GES, in average. The source says:
In order to characterize DXS alleles activity, the inventors used Agrobacterium-mediated transient transformation of tobacco (Nicotiana benthamiana), which allows a fast and efficient gene expression in tobacco leaves (Batoko et al., 2000). This approach was already used successfully to characterize genes involved in grapevine secondary metabolism (Schmidlin et al., 2008; Hugueney et al., 2009). MoDXS1, MoDXS2 and GwDXS2 alleles were expressed in tobacco leaves, together with a cDNA encoding the enzyme geraniol synthase (GES) from basilicum (Ocimum basalicum) (Iijima et al., 2004). […] Thus, GC-M5 analyses of tobacco leaves co-expressing GES and DXS alleles allowed an accurate comparison of DXS alleles activity in planta.
Grapevine DXS cDNAs were amplified by PCR using the upstream primer 5′-[…] TACGCTCTCATTTCC-3′ (SEQ ID No11) and the downstream primer 5′-[…]-3′ (SEQ ID No12), and cloned into the pDONR207 Gateway compatible vector (Invitrogen, Carlsbad, Calif.) using Gateway BP clonase (Invitrogen) according to the manufacturer's instructions. DXS cDNAs were sequenced to verify that no mutation had been introduced. For Agrobacterium-mediated transient expression, DXS cDNAs were subsequently transferred into the GATEWAY binary vector pMDC32 (Curtis and Grossniklaus., 2003). Geraniol synthase cDNA from basilicum (Ocimum basilicum) (Iijima et al., 2004) was cloned into the GATEWAY binary vector pMDC83 (Curtis and Grossniklaus., 2003) and expressed as a GFP fusion protein. All constructs were introduced into Agrobacterium tumefaciens strain C58 (pMP90) by electroporation. Nicotiana benthamiana leaves were infiltrated with A. tumefaciens cultures (OD600 0.5) according to Voinnet et al. (2003). Leaf sectors were […] for terpene content 96 h after Agrobacterium infiltration.
For each sampling point, three replicates of terpenol analysis were performed. After weighing, tobacco leaf sectors (about 1 g) were ground under liquid nitrogen and then suspended in 2 mL of ultra-pure water. […]

B1: MoDXS1: typical (wild type) DXS allele shared by Vitis vinifera cv Muscat Ottonel and Gewurztraminer (protein)
chain: MALCTLSFPAHFSQAAASNPQRLTPQCSHLFLGVDLQCQSQQRSKARKRPNGVCASLSDREEYHSQRPPTPLLDTINYPIHMKNLSVKELKQLADELRSDVVFNVSKTGGHLGSSLGVVELTVALHYVFNAPQDRILWDVGHQSYPHKILTGRRDQMHTMRQTDGLAGFTKRSESEYDCFGTGHSSTTISAGLGMAVGRDLKGKNNNVIAVIGDGAMTAGQAYEAMNNAGYLDSDMIVILNDNKQVSLPTATLDGPIPPVGALSSALSRLQSNRPLRELREVAKGVTKQIGGPMHELAAKVDEYARGMISGSGSTLFEELGLYYIGPVDGHNIDDLVAILKEVKSTKTTGPVLIHVVTEKGRGYPYAEKAADKYHGVTKFDPATGKQFKSSAPTQSYTTYFAEALIAEAEVDKDIVAIHAAMGGGTGLNLFHRRFPTRCFDVGIAEQHAVTFAAGLACEGIKPFCAIYSSFMQRAYDQVVHDVDLQKLPVKFAMDRAGLVGADGPTHCGAFDVAFMACLPNMVVMAPADEAELFHMVATAAAIDDRPSCFRYPRGNGVGVELPPGNKGIPIEVGRGRILIEGERVALLGYGTAVQSCLVASSLLEQHGLRITVADARFCKPLDHALIRSLAKSHEVLITVEEGSIGGFGSHVAQFLALNGLLDGTTKWSPMVLPDRYIDHGAPADQLAMAGLTPSHIAATVFNILGQTREALEIML
modifications: Vitis Vinifera
notes: typical (wild type) DXS allele shared by Vitis vinifera cv Muscat Ottonel and Gewurztraminer
In the case of B1, in the experiment on grape berries, the “terpenol content in grape berries” value was “extremely low levels of terpenols”. Further, the geraniol biosynthesis result in the experiment with tobacco leaves (co-expression with GES in tobacco leaves, versus GES alone) is “substantial increases”.

B2: GwDXS2: DXS allele of Vitis vinifera cv Gewurztraminer with R306→C mutation (protein)
chain: B1 chain with R306C
modifications: Vitis Vinifera
notes: DXS allele of Vitis vinifera cv Gewurztraminer with R306→C mutation
Take B2: the “increase in geraniol accumulation in tobacco leaves” value with tobacco leaves was “three time increase”.

B3: MoDXS2: DXS allele of Vitis vinifera cv Muscat Ottonel with K284→N mutation (protein)
chain: B1 chain with K284N, V560I
modifications: Vitis Vinifera
notes: DXS allele of Vitis vinifera cv Muscat Ottonel with K284→N mutation
With B3, the “increase in geraniol accumulation in tobacco leaves” value in the experiment on tobacco leaves is “three time increase”.
